For this data set, the system named is Saccharomyces cerevisiae. The experiment in a line: transcriptional activation domain activity (GFP:mCherry ratio, weighted mean of sorted bins, harmonized to initial dataset scale) (arbitrary fluorescence ratio units); higher = stronger transcriptional activation. As to conditions: beta-estradiol 1 µM; induction time 4 h. In outline: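 The activation activity of each tile is the read-weighted mean of bin median fluorescence, averaged across its barcodes and mapped linearly onto the scale of the initial dataset. Tiles were fused to an estradiol-inducible synthetic transcription factor, barcoded, and integrated at URA3 in yeast diploids carrying a GFP reporter. Induction used 1 uM beta-estradiol in SC for 4 hours at 30 °C, after which cells were sorted into 8 GFP:mCherry bins, and any tile with fewer than 50 reads was dropped.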
For the sequence “KIHLVNISQVVVFFVYRFLYGLIPLFEIATCAYYPLLVSLWHLDYLLFYAVMF”, the “transcriptional activation domain activity” value was found to be 48100.

As to “TLAGMIRENDEEQKSRGITRIKELEIKCLIEGAYGINRPMHLFETAVVIAGGV”, the “transcriptional activation domain activity” value was 54500.

With “IVVVVSPGVLHVDVGITILYGEVIVGLRTGTKDVLLRWKIVQVERRWLGYTPE”, the “transcriptional activation domain activity” value stood at 30500.

For the sequence “LLRAYGRCLAPFPELVTQAYTWFRSWGTSEFRPLTVALLLVTYMQRSPEIKAP”, the “transcriptional activation domain activity” value is 70700.

Take “AAMLLQRVDPNILGNAANVDKTLIHSMAWCLAKIMLFFDPSYITGLLQAYFKL”: the “transcriptional activation domain activity” value was 46300.

Consider “FAGLSYFVYDLHTMLSSIVIICVIVADFLYFGSILLPALWLECPYRVPLLFRP”, for which the “transcriptional activation domain activity” value turned out to be 71900.

Turning to “MIHCMLLVGSTCPFFSLFLIAYFYDAIYDLAQFDMWSLLLCIYWDISPIFLFP”, the “transcriptional activation domain activity” value came out at 48100.

With “VLVVLCLRFFIFGIFGYILGFWMQHLLPYTPLSLSFMCLLFCLSFHLDISPSP”, the “transcriptional activation domain activity” value was 45600.

Take “TGGLPELREHLDDGRASYAYARVTYSNDKESQREKFVLVVWIGPACKVMRKAK”: the “transcriptional activation domain activity” value stood at 25700.

As for “HERLKLCNYQQAPDNIWCQYWFMGSFLVFFSNLDAVIDLPVMILLDLMPQICF”, the “transcriptional activation domain activity” value worked out at 44100.

As for “PIGIFFFFPFVWLFRVFIFLCISYCCFLVPYVCSRGSSFFWLPVSTLFLSFLF”, the “transcriptional activation domain activity” value worked out at 45000.

On to “PPLSSPFLCFPLCFPLPPLPLFPPSPLFPLSSPPSLFPFPPLPLFNPFLPSLC”, for which the “transcriptional activation domain activity” value is 29800.

“MFCLRSWLPLLFIPTNASPVFIFLFFVCTYFLNRPCVYCSFLLLILFMTSCNW”: the “transcriptional activation domain activity” value came to 62500.

For the sequence “HHDNVNPTIPPPDNYILNNENDDGLDNLLGMDYYNIDDLLTQELRDLDIPLVP”, the “transcriptional activation domain activity” value was 140000.

Turning to “STHSVSLLVVWALRRIRVNLVKLAGITYMVPFPLLLVLVMIGSSSYLSWIFWI”, the “transcriptional activation domain activity” value was determined as 64900.

For the sequence “PDRLDGRCVPDLSFFSVGDFTPISLVFFLSFPLLLFFFSFFFFFFFFFFFFFF”, the “transcriptional activation domain activity” value stood at 37700.

Turning to “DDEADGKRRRVQRACDSCRKKKCDVRARVYLCGCSKTPRSASQLLRRARGAHG”, the “transcriptional activation domain activity” value was found to be 42500.

On to “DPTSRAPTAVRVRVKHSSGEEQEEEERLPADGVVICAGPWTGRVARRLLGEKV”, for which the “transcriptional activation domain activity” value was found to be 37200.

Consider “LSRKASELRHATRNWALHSKHEEWNVSFRELARKYLIRPFLLMINPVCFLMSF”, for which the “transcriptional activation domain activity” value came out at 74700.

On to “MSIEKKFDDDSPIDIEPSRSYDLDTRRRAALAEIDNASFSRFHVKTVIVAGIG”, for which the “transcriptional activation domain activity” value came to 64400.

Consider “HWSYYRNGNMIINFFYKEIINIGYLFWFQIYCAWSTAQAIDYVYLLFWNAFWT”, for which the “transcriptional activation domain activity” value was 77100.

Take “SIFVVFFISFVPLVVQELTERGFWRAATRLAKHFGSLSFLFEVFVCQVYANSL”: the “transcriptional activation domain activity” value came out at 65500.

For the sequence “KLLLVHGRWSYQRIADMHANFFYKNVIWTFGLFWYMPFNGFDATYLYHYTFIL”, the “transcriptional activation domain activity” value was found to be 58100.

Take “PWTFDLGLFGLGLFGLFGLFGLFGLFGLGPFGLGLFGPLDFLALDFLDLWTFW”: the “transcriptional activation domain activity” value turned out to be 18400.

Take “EGEEDKPKAARGRKRKADADAEEPPAKKTKPASKAAPGSKPASKAAASKPASK”: the “transcriptional activation domain activity” value turned out to be 25400.

In the case of “LAGGLGFFLWLLPTWWVLFACVGFLVWLFWSPVVLVASVGFVAWKLGYWWVLW”, the “transcriptional activation domain activity” value was 24100.

Turning to “YLIILILFCFCHLWELDRWAHSLASQEKLRYSCVIGLTIFRLRCPLSLTKDAP”, the “transcriptional activation domain activity” value is 48900.

As to “VVLWHIVISLRFWFNFVSVVPALRWVYLSIYEIKVDYKNLIEYTLPQLCSLFI”, the “transcriptional activation domain activity” value was determined as 54600.

As to “YQVYYYYQHFRNDAFGMQCLVYGASLINLLHSILLPKCVYFWVSTYWGNLSAL”, the “transcriptional activation domain activity” value turned out to be 60400.

For “MLMFLRCGLGLRFGVLVCGCRSTFVCWSLQRAFANMLRARSLPWIFLAWVILL”, the “transcriptional activation domain activity” value was determined as 76000.

As to “ELKDGGGGESSPIEIADRVVVEECDMEKVALDRTLGRLWRGWRKRLRSPATPV”, the “transcriptional activation domain activity” value was 65100.

As to “ILSPTLFLLFSSSPLPLLFYPHFPFLVLTSYFLLLLYSSVSLFIAFLHSLFLI”, the “transcriptional activation domain activity” value came to 41300.

Turning to “DGCIFFALITFALMLRIATAFCMRGPIHAIFLPWSIVCYYYAGSHLLLNLRWY”, the “transcriptional activation domain activity” value was found to be 46300.

As to “PKDEKKQEDDQKAKDGSKSEGDLGEKKEEKVEEKKDDDNKSGEKKDEASKSGD”, the “transcriptional activation domain activity” value worked out at 28000.

In the case of “GGEGGAARNGRKRAENARRGREGGKERGPGNKTVAGQEAGGRGHREDRGGSDR”, the “transcriptional activation domain activity” value stood at 40500.

Turning to “MVYQGGVTFLCNFYILFPFFPFFFCFCKVSFLFCFCIFLFFCSWDGGLFLFLF”, the “transcriptional activation domain activity” value came out at 62700.

Regarding “RIVGESASTHAVCVSLPRDVYQASDGEEDLMGSVPQVLPALVCSCTRASSIVH”, the “transcriptional activation domain activity” value came out at 68500.

For the sequence “FVYLILTILPCLDHRCPYRTPMSSIWWYCWHTSLGFFALCARWLLNLLHGILV”, the “transcriptional activation domain activity” value turned out to be 50200.

“MIHSIAVYIMLISSTLTHSLISLLFYILSLYVGIFYTYHILFKVLFICQWFLF”: the “transcriptional activation domain activity” value came out at 76200.

For the sequence “HTVGGKPSELMRSSEEDEDKICGAIGCDDTESAPSNACGRCKRVYYCSRACQT”, the “transcriptional activation domain activity” value worked out at 42800.

As for “GGVSRIRQGERQGAGAGGAEGKSRKGAAAGRGKGGEQGGERGGSREGKGGGAG”, the “transcriptional activation domain activity” value is 37500.

With “MLLGCRKRYSAHPFNDFLSFFIFYSSLFFYSLLSPFPFPPHSTPVTSFFILFY”, the “transcriptional activation domain activity” value was determined as 53700.

“LWYIGSFVTNGLVNVVGVWKICKLWSIWVRVAFTYMFMCFILFRALALHRIFI”: the “transcriptional activation domain activity” value worked out at 59200.

As for “TFQPEHTCFPFFLFFFFLFFPPLSFFLPLFFPYSFSVAPLLSAPTVTTHTFTF”, the “transcriptional activation domain activity” value is 52800.

In the case of “ISYVSLEIRRTVFGLRLFAVAFYCTFFYWLMIRPNCKARFWCNFQPFSWIQAI”, the “transcriptional activation domain activity” value stood at 43100.

As to “GDLGFRDSIVTKVLQDARSNFLVSVSRLLRPIFVLMKKWVRLAVERLNICHSR”, the “transcriptional activation domain activity” value was 33300.

Consider “TLTDKCFGAFEDENAIHFHNFHVVSPKYMVILVNCLYMWDLMKTVGLRKPWSG”, for which the “transcriptional activation domain activity” value stood at 68200.

For “MNLILRCIWRVTKTIPRLIQTKSIKPDILLYDIHKFFVTVPPREWKRRATEFP”, the “transcriptional activation domain activity” value stood at 55900.

Take “PKRGRGRPPKDPAAKAAAAAAAAEAEANGEKKPGRGRPRKNPVPSGEGGEAVP”: the “transcriptional activation domain activity” value turned out to be 19600.

Take “FVCVASAIGGVGYLLLLTVAENVHVRYFATFCIVSGTYTTIGIVIAWFAHNLG”: the “transcriptional activation domain activity” value came out at 48700.

“KYLSTCLKSCNTQLLDGILNTFARIFLSLGHLVEIMPELGTSILFQTYLFALQ”: the “transcriptional activation domain activity” value came to 52900.

Take “PPYALGYFGESDHGFCSLKVDLVYSNFMIYYLIVVPRLLVYFYCLLILFFIAM”: the “transcriptional activation domain activity” value came to 61600.

As to “MDKFRVLRLVLFRWWLFALCLIRFEVMEALLIHSPRFFEKLILVRTNLYLLCI”, the “transcriptional activation domain activity” value was 50100.

For the sequence “EAEAGADGSEGGEDDGREKEEVEEEGGEEEGGEEEGREDDDTKAEAEAEELSE”, the “transcriptional activation domain activity” value came to 26600.

Regarding “AMDGVAQLHALLGGCHTRLAGLVFSTFEAAVLLVYLCVDPMFPRDCPHQHVPP”, the “transcriptional activation domain activity” value was 57400.

“MFMGTLLLVFMDYGWAFFLDCYLWFFVTSLCFWYVKFCLLVGCCILVLCNVAW”: the “transcriptional activation domain activity” value came out at 31700.

“NSLKGMAVDFRWWLLAHKKRPLREVNLILQLDSLTEVIKLACVSPKLSFLCIM”: the “transcriptional activation domain activity” value worked out at 71000.

With “PRNSWIKWAFLFARYFPLLAGLCGRVIDSIVLYRQPIPIPLNALRIWYICQVL”, the “transcriptional activation domain activity” value turned out to be 52500.

On to “FVNLPYYPHVHLSSFFFFCFSLSIFVLSFRFVHLIPFPSYLLCLSVRLFFGLL”, for which the “transcriptional activation domain activity” value amounted to 25600.

As for “TTWLAHSKKKNCDVCKHPYSFTKVYATDMPTRLPPVLLLRRIAQQSFFAMVFA”, the “transcriptional activation domain activity” value worked out at 44800.

Take “LLVRIIGRCGFLGASFQVALLSDYISIMTLHIYWFYAVAARIYFWQLSILHSL”: the “transcriptional activation domain activity” value was 43100.

With “PQEPQKGEEEGGARGRPRCPRRRGGPKEEAAVPVEAPAVLAAEPVKADEPAAP”, the “transcriptional activation domain activity” value stood at 30200.

Take “RGWMVYIGFLVVFYSAAGFGLSVVNNFTLLIGVYKFVYPITTTLFQLIFTQIF”: the “transcriptional activation domain activity” value was determined as 50200.

Consider “EEEGNSRRKRRHRDDRDSRERDERGRDRDRERRRHRRDSSRSRDASEEERGHK”, for which the “transcriptional activation domain activity” value worked out at 13400.

Turning to “NFFLKDNAPVLQEYLAVFRHLLSFHDPELSSHLDTIGFMPDLYAIPWFLTLFT”, the “transcriptional activation domain activity” value was found to be 16300.

For the sequence “VVKGDEVQIVRGSKKGAEGRVTQVYRKKWVIHVDRVERQKAKEQTVPVPVAAS”, the “transcriptional activation domain activity” value was 70900.

Take “MFTGTLLVVFMHYGWSFFLNCCLGCLVISFCFWYVKLWLLIGRCILVLCIVAR”: the “transcriptional activation domain activity” value amounted to 69000.

As to “ESNVAGTAGSKPRKPRAKTQKKMRPSENSQAEKSDRSATRKSREPTGTRRGRK”, the “transcriptional activation domain activity” value turned out to be 24800.

For the sequence “MGIIIVVCVFFFLTGFLFTLVFLLSLWSLFVFFYFINFSFPLSFALLLLIFFL”, the “transcriptional activation domain activity” value came to 40500.

For the sequence “SLADEKERGLLTGDDNRDEYLGRNLRGMIHEFRWQTLVLLKCCLLQPKMLFFS”, the “transcriptional activation domain activity” value is 58100.

Turning to “RLKLFIMVVFCLGTIHEYALIGMYWSILISCRRSMSLECTTKLPWQMVLGVFM”, the “transcriptional activation domain activity” value was 49800.

Consider “VVVKVALLLRWLVMVYDVLDGHTMLSQLYGLLFNCLDMISLRTHICHLLSLLT”, for which the “transcriptional activation domain activity” value was found to be 27000.

Consider “MAGENGGLGAFRDGSADGVGRGADLVSSLEQTRGYQMEMFQESLRRNIIVAMD”, for which the “transcriptional activation domain activity” value amounted to 62800.

With “RSMLFPKPSGFKFYRDSFRYISVMACVAMLGFIATFINFIRLGIAWHLIIVRA”, the “transcriptional activation domain activity” value was 54400.

The values above are taken from the supplement of paper PMC12636428.
